Results reported in patent publication US10370443B2, “Method of treating autoimmune disease by administering antibodies to interleukin-6” (Fountain Biopharma Inc., priority 2012, dated 2019).
Where a chain is given by its changes, count along the chain named. “Also recorded” adds a separate entry of the source.

B1: 1-4-62: parent fully-human anti-IL6 antibody clone; HC CDR3 SEQ ID NO: 6, LC CDR3 SEQ ID NO: 13 (antibody, V domains shown)
VH: EVQLVESGPALVKPTQTLTLTCTFSGFSLSTGGMSVSWIRQPPGKALEWLARIDWDDDKFYTPSLKTRLTISRDTSKNQVVLIMTNMDPVDTATYYCARMHIDDSNGYYSDAFHIWGQGTMVTVSS
VL: EIVLTQSPATLSVSPGERVTLSCRDSQSVSSTSLAWYQQKSGQAPRLLIYDTSNRATGIPARFSGGGSGTDFTLTISSLEPEDFAVYYCLVRNNWPPRFTFGQGTKVEIK
B2: Ag1-4-6: affinity-matured fully-human anti-IL6 antibody; HC CDR3 SEQ ID NO: 6, LC CDR3 SEQ ID NO: 15 (antibody, V domains shown)
VH: B1 VH
VL: B1 VL with L90S, V91F, R92V, N93S, N94R, W95P, P96Y
B3: HAg1T-3-10: affinity-matured fully-human anti-IL6 antibody; HC CDR3 SEQ ID NO: 16, LC CDR3 SEQ ID NO: 15 (antibody, V domains shown)
VH: B1 VH with Y109F
VL: B1 VL with L90S, V91F, R92V, N93S, N94R, W95P, P96Y

How the values were obtained:
[1] = system: IL6-induced phosphorylated STAT3 in U266 cells; test: Cell signaling transduction assay (P-STAT3 western blot); format: cell-based, human; settings: for STAT3 phosphorylation inhibition percentage of control: rhIL6; for suppression of phosphorylated-STAT3 signaling: western blot, FIG. 1A/1B
Procedure: U266 cells (1×10^6/ml) were washed twice with serum-free RPMI 1640 and cultured for 2 h in the absence of fetal bovine serum and growth factors. Cells were stimulated with rhIL6 (5 ng/ml) for 30 min at 37° C. and then treated with or without anti-IL6 antibodies. Cells were washed with ice-cold PBS, and then lysed in RIPA buffer (Thermo) supplemented with protease and phosphatase inhibitor (Roche). Western blot analysis was performed using anti-pSTAT3, and anti-STAT3 (Cell Signaling Technology) antibodies. After incubating with HRP-labeled goat anti-rabbit (Thermo) or HRP-labeled goat anti-mouse antibody (Thermo), the membranes were developed by enhanced chemiluminescence (GE Healthcare).
Human multiple myeloma U266 cells were used to examine the effect of anti-IL6 antibodies on IL6-induced signaling cascade. U266 cells were cultured in the presence or absent of antibodies, together with rhIL6. After 30 minutes, whole cell lysates were collected and western blot analysis was performed to examine phosphorylated STAT3 protein (P-STAT3), which is a major transcription factor involved in the IL6 signaling pathway. […] (FIGS. 1A and 1B).

[2] = system: human prostate cancer PC-3 cell; test: Prostate PC3 tumor metastasis and cachexia, intrasplenic implantation model; settings: for total body weights (cachexia): day 31 after PC-3 implantation, 20 mg/kg i.v. twice a week, P<0.01; for symptom-free survival of PC3 tumor-bearing mice: repetitive injections, Kaplan-Meier, FIG. 5B
Procedure: The body weights of those mice were measured twice a week.
All mice were then euthanized by CO2 asphyxiation and body weights were determined. Primary tumors in the spleen and liver were excised, photographed, and weighed. Organ index was expressed as milligram organ per gram mouse. Mean+SD were calculated using Student's t-test. The survival assay was used Kaplan-Meier analysis. Paraffin-embedded or frozen section of tumor masses were prepared and stained by anti-CD31 and Ki-67 plus Hematoxylin staining for analysis.
To verify the efficacy of FB704 on cancer induced cachexia and metastasis, mice were implanted with human prostate cancer PC-3 cell (1.0×10^6 per mouse) by intrasplenic injection. On day 1, the mice were randomized into 4 groups (n=12-15). High (20 mg/kg) and low (5 mg/kg) dose of FB704, positive control Actemra (20 mg/kg) and PBS were administered via i.v. (intravenous) injection twice a week.

[3] = system: BxPC-3 tumor; test: Xenograft human pancreatic tumor model; format: in vivo, mice; settings: BxPC-3 tumor sections, FIGS. 6E and 6F
Procedure: (iv) Xenograft Human Pancreatic Tumor Model Human pancreatic tumor cells BxPC-3 and MiaPaCa cells were re-suspended in PBS and injected subcutaneously (s.c.) (5×10^6 cells, total volume 0.15 mL) into the right flank of mice. […] Mice body weights and the tumor sizes were measured twice a week. Tumor sizes were measured using a caliper, and the tumor volume was calculated by […]. After the experiment, all mice were sacrificed, mice blood samples were collected and the tumor masses were removed and weighted. The differences in mean tumor volume and tumor weight were evaluated by Student's t-test. […] Results (i) FB704 Inhibits In Vivo Angiogenesis in a Matrigel Assay
FB704 enhanced the anti-tumor activity of Oxaliplatin or Gemcitabine in a human pancreatic cancer model.

[4] = target: T1, recombinant human IL6 (Homo sapiens, UniProt P05231); test: BIAcore analysis of IgG binding affinity; settings: for Ka: association rate constant, captured IgG, BIAcore T200; for Kd: dissociation rate constant
T1 construct: purchased R&D Systems
T1 sequence (P05231 30-212): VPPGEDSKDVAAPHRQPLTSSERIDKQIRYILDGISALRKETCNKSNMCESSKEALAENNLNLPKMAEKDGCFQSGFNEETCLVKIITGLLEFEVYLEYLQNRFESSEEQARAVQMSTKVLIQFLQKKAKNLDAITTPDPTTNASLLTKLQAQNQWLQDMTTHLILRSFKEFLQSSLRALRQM
Procedure: IgG binding affinity was measured by using human antibody capture kit (GE healthcare) in BIAcore T200 system (GE healthcare). The mouse anti-human IgG was immobilized on a CMS sensor chip via amine coupling. Approximately 700 RU of purified anti-IL6 IgG in HBS-EP+ buffer were captured onto the immobilized surface. The recombinant human IL6 (R&D Systems) at concentrations ranging from 25.6 nM to 0.4 nM in HBS-EP+ buffer was injected for 2 minutes using a flow rate of 30 μl/min. Dissociation of bound antigen in HBS^−EP^+ buffer flow was followed for 7 minutes. The surfaces IgG were regenerated after each cycle using regeneration solution (3M MgCl2). The dissociation constant (KD) was calculated as kd/ka.

[5] = system: human IL6 and other cytokines (IL6 family and non-IL6 family); test: Specificity analysis ELISA on coated cytokines; format: binding; settings: FIGS. 3A and 3B
Procedure: Plates were coated with recombinant human IL3, IL4, IL5, IL6, IL11, IL17A, CNTF, OSM, IGF-1 (R&D Systems), IL2, FGF (Prospec), VEGF, TNF-α, EGF (Peprotech) at 2 μg/ml in 0.1M NaHCO3 buffer at 4° C. overnight. After being washed by PBS, the wells were blocked with 1% (w/v) BSA in PBS at RT for 1 h. Purified anti-IL6 antibodies in four-fold serial dilutions at a starting concentration of 2 μg/ml were placed into the wells and incubated at RT for 1 h. The plate was washed in PBS containing 0.1% (w/v) Tween 20 and then probed with HRP-labeled goat anti-human IgG (KPL) diluted 1:10,000 in 1% BSA-PBS for 40 min at RT. The plate was again washed and a TMB substrate solution was added to develop color. Stop solution (1M H2SO4) was then added and the absorption at 450 nm quantitated using VERSA max (Molecular Devices).
An ELISA assay as described herein was performed to confirm the binding specificity of high-affinity anti-IL6 antibodies described herein. Briefly, plates were coated with different cytokines as indicated in FIG. 3A (IL6 family cytokines) and FIG. 3B (non-IL6 family cytokines) and the binding activities of the FB704 antibody clone (i.e. Ag1-4-6) to those cytokines were examined.

[6] = system: IL6 plus sIL6R induced MCP-1 and sICAM-1 in HUVECs; test: MCP-1 and sICAM-1 production in HUVEC cells (ELISA); format: cell-based, human; settings: 24 h; for inhibition of IL6+sIL6R induced MCP-1 secretion: FIG. 2A; for inhibition of sICAM-1 production: FIG. 2B
Procedure: To examine the effectiveness of the anti-IL6 antibodies described herein in treating rheumatoid arthritis (RA), monocyte chemotactic protein-1 (MCP-1) and sICAM-1 secretion by Human Umbilical Vein Endothelial Cells (HUVECs) were measured after antibody treatment as follows. The HUVEC cells were plated in a 48-well plate at a density of 2×10^5 cells/ml. The cells were treated with a combination of recombinant human IL6, IL6 receptor-α (R&D systems) with or without anti-IL6 antibodies at various concentrations or the control IgG antibody at 37° C. for 24 h. Cell free culture supernatants were collected and analysis for MCP-1 and sICAM-1 by ELISA (RayBiotech)

[7] = system: IL6-induced MCP-1 in PBMC cells; test: MCP-1 production in human PBMC; format: cell-based; settings: PBMC of five healthy donors, IL6 100 ng/ml, 24 h, FIG. 7B
Procedure: Further, PBMCs were isolated from five healthy donors. The cells (5×10^5 cells/250 μl/well) were cultured with IL6 (100 ng/ml) for 24 h in a 96-well U-bottomed culture plates (Corning, Corning, N.Y.) containing RPMI1640 in the presence of anti-IL6 antibodies at different concentrations. The levels of MCP-1 in the supernatant were measured by MCP-1 ELISA kits (e Bioscience).

[8] = system: hIL6-induced angiogenesis; test: Matrigel angiogenesis assay; format: in vivo, mice; settings: listed as FB704
Procedure: Liquid matrigel (BD Biosciences) was maintained at 4° C. hIL6 recombinant protein (R&D Systems) was added to Matrigel to a final concentration of 100 ng/0.5 ml. […] Then, the mice were treated with anti-IL6 IgG antibodies or a control IgG antibody through intravenous injection. On day 6, the mice were euthanized by CO2 asphyxiation. Matrigel plugs were removed, weighed and photographed. To measure hemoglobin levels, the Matrigel plug was lysed with a lysis buffer (1% SDS, 0.5% Triton in PBS) overnight at 4° C. The hemoglobin contents of the plugs were quantitated using Drabkin's reagent (Sigma). The concentrations of hemoglobin in the plugs were determined using a standard curve of bovine hemoglobin (Sigma). Hemoglobin contents were indicated as micrograms hemoglobin per gram Matrigel. Mean+SD were calculated using the Student's unpaired t test; p<0.05 was considered as statistically significant.
The anti-angiogenic ability of FB704 was examined in an in vivo matrigel model as described herein. Six days after the treatment, the mice were scarified mice and hemoglobin concentrations were measured. […] (FIG. 4B).

| Molecule | total body weights (cachexia) [2] | Ki-67 positive cell rate [3] | dissociation rate constants (kd) [4] | Ka [4] | Kd [4] | suppression of phosphorylated-STAT3 signaling [1] | inhibition of IL6+sIL6R induced MCP-1 secretion [6] | inhibition of sICAM-1 production [6] | suppression of MCP-1 production [7] | further results |
| --- | --- | --- | --- | --- | --- | --- | --- | --- | --- | --- |
| Actemra: anti-IL6 receptor humanized antibody, FDA-approved for rheumatoid arthritis, used as a control [reference compound] | remained stable |  |  |  |  |  |  |  |  | STAT3 phosphorylation inhibition percentage of control ([1]; Ab concentration 0.05 μg/ml): 0%; STAT3 phosphorylation inhibition percentage of control ([1]; Ab concentration 0.5 μg/ml): 17%; symptom-free survival of PC3 tumor-bearing mice [2]: significantly prolonged symptom-free survival |
| O=C1[O][Pt]2([NH][C@@H]3CCCC[C@H]3[NH]2)[O]C1=O [Oxaliplatin, reference compound] |  | 14% |  |  |  |  |  |  |  |  |
| B1 |  |  | 0.00166 s⁻¹ | 438000 M⁻¹ s⁻¹ | 0.00166 s⁻¹ |  |  |  |  |  |
| B2 | remained stable | 16% |  | 1.61e+06 M⁻¹ s⁻¹ | 0.00121 s⁻¹ | at a level greater than Actemra; also recorded: suppressed the STAT3 signaling at a much greater level as compared to control antibody Actemra | in a dose dependent manner; also recorded: inhibited | in a dose dependent manner; also recorded: at a level greater than Actemra | inhibited MCP-1 production in a dose dependent manner | binding activity to coated cytokines (specificity) [5]: high binding activity to human IL6 protein but not to other cytokines; inhibition of IL6-induced angiogenesis in matrigel plugs ([8]; 6 days after treatment, FIG. 4A): observable difference in color and vessel density; also recorded: inhibited angiogenesis; hemoglobin concentrations in matrigel plugs ([8]; day 6, compared with hIL6, FIG. 4B): significantly reduced the hemoglobin concentrations; also recorded: significantly changed the hemoglobin concentrations; tumor cell infiltration in liver ([2]; gross necropsy, FIG. 5C): moderate tumor cell infiltration; vessel density / CD31 staining on tumor sections ([2]; immunohistochemistry, vs PBS, FIGS. 5D and 5E): significantly decreased; symptom-free survival of PC3 tumor-bearing mice ([2]; listed as FB704): significantly prolonged symptom-free survival; also recorded: significantly better efficacy than Actemra; also recorded: significant better efficacy than Actemra |
| B3 |  |  | 0.0006 s⁻¹ | 2.24e+06 M⁻¹ s⁻¹ | 0.0006 s⁻¹ | at a level greater than Actemra | in a dose dependent manner | in a dose dependent manner | inhibited MCP-1 production in a dose dependent manner | suppression of phosphorylated-STAT3 signaling ([1]; listed as HAgT1-3-10): suppressed the STAT3 signaling at a much greater level as compared to control antibody Actemra; inhibition of IL6+sIL6R induced MCP-1 secretion ([6]; listed as Hag1T-3-10): inhibited; inhibition of sICAM-1 production ([6]; listed as Hag1T-3-10): at a level greater than Actemra |
